Laboratory results reported in the supplement of paper PMC9732359.
± gives the uncertainty stated by the source.

Assay: protein stability index of a GFP-peptide fusion (yeast GPS) (PSI 1-4); higher = more stable; sorted into four equal gates, so the index is relative within each strain
Procedure, shortened: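 Tiled yeast protein peptides of 17 residues were each joined downstream of GFP, on plasmids that also express Cherry. The pooled library was maintained in yeast, and mid-log cultures in leucine-free medium were sorted into four equal gates on the GFP/Cherry ratio. Plasmids from every gate were amplified by PCR and sequenced on Illumina, with barcodes linking reads to strains. The protein stability index of a peptide is its gate-number-weighted read frequency summed over the gates.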

Sequence	protein stability index (doa10∆)	protein stability index (pdr5∆)	protein stability index (san1∆)	protein stability index (ubr1∆)
IGSTSKRPIESGTSSDP [YIL149C/MLP2]	3.23 ± 0.087	3.22 ± 0.1	3.17 ± 0.11	3.36 ± 0.064
SDKPSLPSAVDGENDKK [YLR335W/NUP2]	3.4 ± 0.08	3.42 ± 0.086	3.37 ± 0.071	3.35 ± 0.11
NNTTPSSTGNANTSNNL [YJL041W/NSP1]	3.34 ± 0.093	3.29 ± 0.08	3.46 ± 0.095	3.37 ± 0.07
SLKGLQSKLKDVVEYLD [RPN8]	2.92 ± 0.083	2.27 ± 0.055	2.71 ± 0.069	2.48 ± 0.048
KLQSWDKVSSCFPQYVN [NNF1]	1.42 ± 0.099	1.94 ± 0.09	1.45 ± 0.15	2.68 ± 0.1
QEAIQQNRRLAFEELEG [PRP8]	2.24 ± 0.12	2.62 ± 0.28	2.74 ± 0.24	2.75 ± 0.12
HYLVNLTSPAFGPHVDV [GRR1]	2.27 ± 0.14	2.87 ± 0.12	2.16 ± 0.25	3.42 ± 0.28
YRLDIIESALKSKLDQD [RPN2]	1.66 ± 0.093	1.96 ± 0.12	1.99 ± 0.16	1.94 ± 0.19
VRPSISFNESQRGEDDL [RPO21]	2.49 ± 0.078	2.81 ± 0.088	2.75 ± 0.093	2.68 ± 0.083
RLLSALGPRGVSITPGK [SRP21]	2.97 ± 0.078	3.04 ± 0.074	3.29 ± 0.078	2.93 ± 0.054
AYFMVGAMGLLSSAGAK [RIP1]	1.99 ± 0.11	2.51 ± 0.11	2.06 ± 0.18	2.34 ± 0.091
SHFVSAVSTIASISLAI [RPP0]	1.81 ± 0.073	1.37 ± 0.073	1.21 ± 0.13	1.11 ± 0.066
LDSNNNNSNSNNNDNNN [SWI1]	2.65 ± 0.035	2.74 ± 0.039	2.79 ± 0.028	2.71 ± 0.029
GKLWKDVKARIAAGDGD [QCR9]	2.3 ± 0.11	2.58 ± 0.16	2.17 ± 0.07	2.37 ± 0.098
NAARKAEASGEAADEAD [RPS9A]	3.29 ± 0.24	3.03 ± 0.29	–	3.47 ± 0.11
RKINLFYLYMLVQKFGG [SWI1]	1.59 ± 0.099	1.23 ± 0.048	1.16 ± 0.18	1.08 ± 0.072
CKIDFQKNFMDQFQWIL [RRI2]	–	1.47 ± 0.092	1.55 ± 0.24	1.93 ± 0.13
NINATNTSVLMKLKLMI [YCS4]	2.08 ± 0.093	1.5 ± 0.079	1.48 ± 0.13	2.24 ± 0.077
DDEPTTPAELVGKFLGY [FAS1]	3.51 ± 0.13	3.34 ± 0.14	3.16 ± 0.08	3.2 ± 0.12
KVVKTPGGILRAQHVKK [RPL34A]	2.76 ± 0.074	2.83 ± 0.077	2.9 ± 0.064	2.71 ± 0.063
PLPVETPRDRRKSVFAP [SSN2]	2.67 ± 0.069	2.31 ± 0.077	2.99 ± 0.099	2.86 ± 0.049
YVKEKLEAVNSMIEKGG [RPN7]	2.93 ± 0.14	2.98 ± 0.1	2.77 ± 0.08	2.83 ± 0.06
DTFDGSDLRVLSGSISE [FAS1]	1.6 ± 0.079	2.34 ± 0.067	1.49 ± 0.14	1.79 ± 0.059
IEEIEYNVKNIIQGRKN [PCI8]	2.38 ± 0.059	2.18 ± 0.052	2.39 ± 0.095	1.76 ± 0.042
IKSIIEQRKQKLSKILP [SMC3]	2.44 ± 0.084	2.7 ± 0.091	2.52 ± 0.081	2.82 ± 0.078
IQIMANIDQEGSKQADR [PGD1]	3.2 ± 0.052	3.11 ± 0.064	3.08 ± 0.054	3.08 ± 0.04
